± gives the standard deviation of the averaged measurements.
Tested on: Saccharomyces cerevisiae
Test: protein stability index of tFT-peptide fusion (C-terminal peptide) (PSI (0-1 scale)); higher = more stable (slower turnover)
Conditions: temperature: 30 C
Experimental: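 MPS profiling in S. cerevisiae of the yeast C-terminome library: the last 12 aa of each annotated ORF are fused to the C-terminus of a sfGFP-mCherry timer, after a GGGS linker. Cells are FACS-sorted into 8 mCherry/sfGFP bins and deep-sequenced. PSI runs from 0 (unstable) to 1 (stable); wild type and das1Δ backgrounds, two technical replicates each.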

[1] = genetic background: das1 deletion

| Sequence | protein stability index [1] | protein stability index (genetic background: wild type) |
| --- | --- | --- |
| EKLQLWHSMSND [YOR008C-A C-terminal 12 aa] | 0.698 ± 0.0035 | 0.72 ± 0.033 |
| TVSLPSRYSRYN [ALR2 C-terminal 12 aa] | 0.6976 ± 0.0014 | 0.684 ± 0.033 |
| DEWRAKYGGQQV [MES1 C-terminal 12 aa] | 0.675 ± 0.037 | 0.676 ± 0.029 |
| LLEDIRANYSLN [YLL056C C-terminal 12 aa] | 0.681 ± 0.012 | 0.692 ± 0.028 |
| LKIVEKIIASEQ [YLR419W C-terminal 12 aa] | 0.683 ± 0.013 | 0.711 ± 0.029 |
| PYKSTELRSVAN [YDL187C C-terminal 12 aa] | 0.671 ± 0.04 | 0.742 ± 0.048 |
| YKQREYYTGVAW [ERG28 C-terminal 12 aa] | 0.70264 ± 0.0005 | 0.694 ± 0.02 |
| TISNWIQETKEV [STO1 C-terminal 12 aa] | 0.70591 ± 0.00011 | 0.7293 ± 0.0034 |
| SKNDSPKKKGWF [MAS2 C-terminal 12 aa] | 0.694 ± 0.027 | 0.702 ± 0.018 |
| ININDLMVNRNH [YOR389W C-terminal 12 aa] | 0.7014 ± 0.0018 | 0.7003 ± 0.0012 |
| NADDPSYYHYLS [CUL3 C-terminal 12 aa] | 0.7059 ± 0.0024 | 0.68 ± 0.01 |
| ESTHKEAMGEKN [MNN5 C-terminal 12 aa] | 0.648 ± 0.014 | 0.675 ± 0.016 |
| SFVTKKKAACYR [YIL025C C-terminal 12 aa] | 0.717 ± 0.011 | 0.706 ± 0.0072 |
| DPSKLRRVPVIQ [RGL1 C-terminal 12 aa] | 0.69 ± 0.018 | 0.687 ± 0.066 |
| IFVGETIFFFLF [YDR053W C-terminal 12 aa] | 0.625 ± 0.016 | 0.536 ± 0.018 |
| PFALPSNDKVFF [ATO2 C-terminal 12 aa] | 0.698 ± 0.027 | 0.731 ± 0.0052 |
| SLRPQERNLYGL [NTH1 C-terminal 12 aa] | 0.691 ± 0.021 | 0.753 ± 0.095 |
| RNVDKLDVFSNS [MRM2 C-terminal 12 aa] | 0.716 ± 0.019 | 0.727 ± 0.037 |
| AKGLAKTEIANQ [GIR2 C-terminal 12 aa] | 0.686 ± 0.018 | 0.656 ± 0.013 |
| ECPGGCPGVAFI [RTC1 C-terminal 12 aa] | 0.7077 ± 0.0053 | 0.685 ± 0.024 |
| LESTHDKAIAGK [MNN2 C-terminal 12 aa] | 0.6974 ± 0.0069 | 0.684 ± 0.021 |

| Sequence | protein stability index [1] | protein stability index (genetic background: wild type) |
| --- | --- | --- |
| TAFLNKVYKRSK [ERG20 C-terminal 12 aa] | 0.692 ± 0.007 | 0.693 ± 0.043 |
| LVSYFIKVQMKL [ECM3 C-terminal 12 aa] | 0.487 ± 0.0087 | 0.443 ± 0.025 |
| YRCEKISQVLVI [CTF13 C-terminal 12 aa] | 0.461 ± 0.036 | 0.495 ± 0.047 |
| TKGEVATKPASY [MGA1 C-terminal 12 aa] | 0.702 ± 0.014 | 0.703 ± 0.018 |
| SQNELRFEERLL [INO1 C-terminal 12 aa] | 0.683 ± 0.021 | 0.675 ± 0.025 |
| YYYYNKYKEFYP [TMH11 C-terminal 12 aa] | 0.736 ± 0.039 | 0.704 ± 0.029 |
| KDWLIKTRKTSL [TVS1 C-terminal 12 aa] | 0.707 ± 0.013 | 0.693 ± 0.011 |
| QEPVIDPGTVVV [MRPL3 C-terminal 12 aa] | 0.6775 ± 0.0024 | 0.676 ± 0.011 |
| LSQFSNVRYLLQ [VPS70 C-terminal 12 aa] | 0.7367 ± 0.0022 | 0.545 ± 0.0054 |
| VFPETDSIFEPV [RAF1 C-terminal 12 aa] | 0.733 ± 0.022 | 0.715 ± 0.0081 |
| SQEPQYKLFRGR [MRPL16 C-terminal 12 aa] | 0.6988 ± 0.0014 | 0.731 ± 0.069 |
| RKSKRVLPVSKF [PET309 C-terminal 12 aa] | 0.783 ± 0.0088 | 0.794 ± 0.087 |
| KTFINNVINVYH [FRM2 C-terminal 12 aa] | 0.6589 ± 0.006 | 0.674 ± 0.018 |
| KHAFMGTLKKDL [RPL3 C-terminal 12 aa] | 0.7 ± 0.01 | 0.686 ± 0.03 |
| KETTTRNYRGTC [GAD1 C-terminal 12 aa] | 0.71 ± 0.029 | 0.707 ± 0.032 |
| NTAGQKPTEYHY [APA2 C-terminal 12 aa] | 0.7199 ± 0.0016 | 0.702 ± 0.019 |
| HNILDRCLKRLS [RKM3 C-terminal 12 aa] | 0.699 ± 0.03 | 0.716 ± 0.013 |
| HEVDTEKINIFQ [YML003W C-terminal 12 aa] | 0.729 ± 0.018 | 0.697 ± 0.026 |
| SAEGSDVLYMQK [LSM7 C-terminal 12 aa] | 0.671 ± 0.0093 | 0.6739 ± 0.0053 |
| HGNDFLQHVNRK [RSM22 C-terminal 12 aa] | 0.716 ± 0.03 | 0.7065 ± 0.0016 |
| FQVVSKKKGRKH [SMY2 C-terminal 12 aa] | 0.691 ± 0.017 | 0.72 ± 0.033 |

| Sequence | protein stability index [1] | protein stability index (genetic background: wild type) |
| --- | --- | --- |
| VFLELKKAQRWA [API2 C-terminal 12 aa] | 0.703 ± 0.019 | 0.686 ± 0.011 |
| NVKSSTQEKDSK [SGN1 C-terminal 12 aa] | 0.706 ± 0.014 | 0.721 ± 0.053 |
| KIEHVDDETRTH [PEX13 C-terminal 12 aa] | 0.6991 ± 0.0032 | 0.6991 ± 0.0042 |
| YAYMLYYERVNK [UBP16 C-terminal 12 aa] | 0.675 ± 0.02 | 0.675 ± 0.041 |
| FTNQKLAKLEVR [YMR141C C-terminal 12 aa] | 0.57877 ± 0.00025 | 0.591 ± 0.0041 |
| PICKLLEEEERG [ALG11 C-terminal 12 aa] | 0.7 ± 0.011 | 0.699 ± 0.041 |
| GVITPVYFPLRW [YDR215C C-terminal 12 aa] | 0.725 ± 0.008 | 0.715 ± 0.017 |
| IFYLRFPSYIRG [YJR151W-A C-terminal 12 aa] | 0.614 ± 0.017 | 0.615 ± 0.0023 |
| YVVTSDEHPKTL [SIR2 C-terminal 12 aa] | 0.724 ± 0.0073 | 0.6955 ± 0.0043 |
| IYALSIKHPKEI [CPT1 C-terminal 12 aa] | 0.713 ± 0.0085 | 0.7248 ± 0.0029 |
| NEPEVQPEAAAN [PUS1 C-terminal 12 aa] | 0.679 ± 0.0086 | 0.69 ± 0.011 |
| VGKKLETFKKTN [WBP1 C-terminal 12 aa] | 0.717 ± 0.0088 | 0.48 ± 0.019 |
| FSSEFSSDPTVN [YJL206C C-terminal 12 aa] | 0.69642 ± 0.00024 | 0.724 ± 0.034 |
| PINDRKYPNQCH [SPR1 C-terminal 12 aa] | 0.715 ± 0.028 | 0.6948 ± 0.0011 |
| FILKAKLEWIKW [YOL075C C-terminal 12 aa] | 0.515 ± 0.018 | 0.578 ± 0.11 |
| QPSSASCLFILI [AHT1 C-terminal 12 aa] | 0.716 ± 0.023 | 0.696 ± 0.055 |
| VVYYQMRCKKMT [BUD26 C-terminal 12 aa] | 0.678 ± 0.032 | 0.4177 ± 0.0039 |
| DIIYFRAGAGKN [OLA1 C-terminal 12 aa] | 0.691 ± 0.017 | 0.6666 ± 0.0055 |
| KYCRVPLPENNR [YEL008C-A C-terminal 12 aa] | 0.709 ± 0.015 | 0.677 ± 0.068 |
| LGFYYIYTLHRA [ERG9 C-terminal 12 aa] | 0.505 ± 0.045 | 0.498 ± 0.03 |
| VHLEKKKDEDKK [UBX7 C-terminal 12 aa] | 0.67376 ± 4e-05 | 0.668 ± 0.021 |

| Sequence | protein stability index [1] | protein stability index (genetic background: wild type) |
| --- | --- | --- |
| YNSGTEGTRFQI [TAR1 C-terminal 12 aa] | 0.707 ± 0.018 | 0.6849 ± 0.0015 |
| APPKLNNSSESE [STE23 C-terminal 12 aa] | 0.681 ± 0.0074 | 0.674 ± 0.0091 |
| ELKAHNINVVDK [PNC1 C-terminal 12 aa] | 0.662 ± 0.037 | 0.675 ± 0.044 |
| DSEEKKSKKSKK [CBF5 C-terminal 12 aa] | 0.669 ± 0.056 | 0.6785 ± 0.0045 |
| YDANSWKQIKSC [PCL5 C-terminal 12 aa] | 0.7002 ± 0.0065 | 0.203 ± 0.016 |
| QTAISMNDEDDA [GVP36 C-terminal 12 aa] | 0.712 ± 0.013 | 0.7006 ± 0.0018 |
| NRFGVLPDDVEE [ECM1 C-terminal 12 aa] | 0.714 ± 0.024 | 0.704 ± 0.032 |
| SSKGFFSKLGCC [YCK2 C-terminal 12 aa] | 0.692 ± 0.0099 | 0.677 ± 0.011 |
| KFDIVDQLLSTL [RSM24 C-terminal 12 aa] | 0.7136 ± 0.0037 | 0.684 ± 0.014 |
| LVYATELIGSGS [ICE2 C-terminal 12 aa] | 0.7058 ± 0.0022 | 0.7 ± 0.073 |
| VQQMVEMQGKMR [SGM1 C-terminal 12 aa] | 0.71134 ± 0.00034 | 0.68508 ± 0.00063 |
| EEEAGYSDVEME [UTP5 C-terminal 12 aa] | 0.6936 ± 0.005 | 0.698 ± 0.013 |
| YEEFALRSGSSS [AFG2 C-terminal 12 aa] | 0.715 ± 0.022 | 0.676 ± 0.014 |
| EESEKQLYTVLK [CUS1 C-terminal 12 aa] | 0.688 ± 0.0087 | 0.676 ± 0.01 |
| EFHQDFFSKYRN [ALT2 C-terminal 12 aa] | 0.707 ± 0.011 | 0.729 ± 0.027 |
| DLKTGNAVKGEL [SSZ1 C-terminal 12 aa] | 0.669 ± 0.019 | 0.6914 ± 0.0056 |
| CSLINSCAFFCL [YDR413C C-terminal 12 aa] | 0.704 ± 0.012 | 0.647 ± 0.013 |
| TRMSSPPPSTSS [SET2 C-terminal 12 aa] | 0.695 ± 0.023 | 0.6896 ± 0.0047 |
| KENLANNEILDN [YKL063C C-terminal 12 aa] | 0.683 ± 0.018 | 0.67 ± 0.026 |

Source: the supplement of paper PMC10724198
